Here are results for one substance from IntAct's records for PubMed 21858148.

Assay [1] deals with apc_human APC (UniProt P25054).
For assay [2], the target named is apc_human APC (UniProt P25054). The source holds these as a separate data set.

Sequence of apc_human APC (P25054 whole entry): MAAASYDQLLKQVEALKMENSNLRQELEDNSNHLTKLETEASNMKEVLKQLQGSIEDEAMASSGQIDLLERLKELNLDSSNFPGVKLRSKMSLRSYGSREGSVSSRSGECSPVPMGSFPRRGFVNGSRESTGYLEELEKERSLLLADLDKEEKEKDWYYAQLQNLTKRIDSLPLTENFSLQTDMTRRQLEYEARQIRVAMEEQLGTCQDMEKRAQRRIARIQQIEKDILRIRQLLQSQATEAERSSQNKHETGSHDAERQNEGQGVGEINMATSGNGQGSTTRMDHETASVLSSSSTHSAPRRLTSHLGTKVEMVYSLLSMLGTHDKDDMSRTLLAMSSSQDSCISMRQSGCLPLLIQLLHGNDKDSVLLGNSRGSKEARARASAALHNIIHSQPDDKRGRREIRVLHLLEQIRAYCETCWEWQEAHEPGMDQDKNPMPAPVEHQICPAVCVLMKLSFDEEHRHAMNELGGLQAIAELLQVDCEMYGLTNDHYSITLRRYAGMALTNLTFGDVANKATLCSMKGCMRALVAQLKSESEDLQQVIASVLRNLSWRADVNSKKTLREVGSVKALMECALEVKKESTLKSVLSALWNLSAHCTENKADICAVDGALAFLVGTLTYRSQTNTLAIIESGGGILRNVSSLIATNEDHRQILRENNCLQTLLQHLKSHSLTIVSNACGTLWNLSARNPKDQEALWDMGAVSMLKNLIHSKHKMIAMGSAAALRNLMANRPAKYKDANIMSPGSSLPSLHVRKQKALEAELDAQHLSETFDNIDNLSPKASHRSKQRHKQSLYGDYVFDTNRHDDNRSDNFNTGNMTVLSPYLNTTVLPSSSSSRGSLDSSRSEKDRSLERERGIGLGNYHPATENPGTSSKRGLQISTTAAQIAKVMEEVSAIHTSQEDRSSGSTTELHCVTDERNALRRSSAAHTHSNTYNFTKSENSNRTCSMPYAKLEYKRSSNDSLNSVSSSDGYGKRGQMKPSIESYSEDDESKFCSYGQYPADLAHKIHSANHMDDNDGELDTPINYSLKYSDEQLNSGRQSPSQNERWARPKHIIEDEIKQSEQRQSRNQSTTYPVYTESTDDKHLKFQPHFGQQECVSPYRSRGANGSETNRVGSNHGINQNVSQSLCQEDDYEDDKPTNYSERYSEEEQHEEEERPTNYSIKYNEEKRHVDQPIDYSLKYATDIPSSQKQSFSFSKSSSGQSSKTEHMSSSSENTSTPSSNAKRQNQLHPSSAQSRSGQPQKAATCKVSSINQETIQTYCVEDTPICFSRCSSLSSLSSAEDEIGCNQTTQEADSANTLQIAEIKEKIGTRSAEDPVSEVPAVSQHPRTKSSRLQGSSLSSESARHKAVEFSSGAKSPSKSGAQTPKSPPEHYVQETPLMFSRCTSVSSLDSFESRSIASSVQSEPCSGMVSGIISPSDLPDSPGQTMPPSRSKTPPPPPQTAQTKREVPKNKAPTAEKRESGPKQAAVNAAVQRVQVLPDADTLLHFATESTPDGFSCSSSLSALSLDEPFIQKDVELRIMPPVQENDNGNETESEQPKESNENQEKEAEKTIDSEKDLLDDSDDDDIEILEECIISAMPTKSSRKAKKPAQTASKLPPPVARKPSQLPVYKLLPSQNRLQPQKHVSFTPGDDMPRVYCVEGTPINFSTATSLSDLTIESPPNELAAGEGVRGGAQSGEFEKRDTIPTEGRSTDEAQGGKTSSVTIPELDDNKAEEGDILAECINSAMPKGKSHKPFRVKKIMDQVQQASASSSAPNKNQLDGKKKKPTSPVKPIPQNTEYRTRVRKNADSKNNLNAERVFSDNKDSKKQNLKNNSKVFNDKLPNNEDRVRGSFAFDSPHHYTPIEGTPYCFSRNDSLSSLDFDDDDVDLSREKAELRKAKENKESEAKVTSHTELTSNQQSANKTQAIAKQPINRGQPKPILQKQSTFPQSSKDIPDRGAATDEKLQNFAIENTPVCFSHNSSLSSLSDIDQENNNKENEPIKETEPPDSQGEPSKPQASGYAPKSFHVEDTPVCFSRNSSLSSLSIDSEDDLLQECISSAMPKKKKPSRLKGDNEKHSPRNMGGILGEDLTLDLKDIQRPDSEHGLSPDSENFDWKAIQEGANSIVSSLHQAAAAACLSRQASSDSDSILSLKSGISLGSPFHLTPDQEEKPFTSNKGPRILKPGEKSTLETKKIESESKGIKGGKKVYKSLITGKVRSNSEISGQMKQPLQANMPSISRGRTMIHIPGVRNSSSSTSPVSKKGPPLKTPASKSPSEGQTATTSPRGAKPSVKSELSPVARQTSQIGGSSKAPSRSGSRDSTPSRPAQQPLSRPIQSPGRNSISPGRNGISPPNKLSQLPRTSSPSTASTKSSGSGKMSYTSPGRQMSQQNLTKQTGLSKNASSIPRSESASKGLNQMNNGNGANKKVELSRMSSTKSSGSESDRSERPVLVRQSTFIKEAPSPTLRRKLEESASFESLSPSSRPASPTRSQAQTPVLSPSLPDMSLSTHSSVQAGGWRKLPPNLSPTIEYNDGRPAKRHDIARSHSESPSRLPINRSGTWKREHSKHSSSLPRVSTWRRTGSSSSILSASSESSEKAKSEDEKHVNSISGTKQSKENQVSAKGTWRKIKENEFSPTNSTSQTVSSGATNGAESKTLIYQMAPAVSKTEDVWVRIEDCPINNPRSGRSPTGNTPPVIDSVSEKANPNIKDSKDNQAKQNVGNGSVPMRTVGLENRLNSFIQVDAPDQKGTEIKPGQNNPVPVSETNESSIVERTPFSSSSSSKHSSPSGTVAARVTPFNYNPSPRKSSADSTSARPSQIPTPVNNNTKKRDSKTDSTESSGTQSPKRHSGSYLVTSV
Sequence of Disks large homolog 1 (Homo sapiens) (Q12959 whole entry, looked up, stated change not applied): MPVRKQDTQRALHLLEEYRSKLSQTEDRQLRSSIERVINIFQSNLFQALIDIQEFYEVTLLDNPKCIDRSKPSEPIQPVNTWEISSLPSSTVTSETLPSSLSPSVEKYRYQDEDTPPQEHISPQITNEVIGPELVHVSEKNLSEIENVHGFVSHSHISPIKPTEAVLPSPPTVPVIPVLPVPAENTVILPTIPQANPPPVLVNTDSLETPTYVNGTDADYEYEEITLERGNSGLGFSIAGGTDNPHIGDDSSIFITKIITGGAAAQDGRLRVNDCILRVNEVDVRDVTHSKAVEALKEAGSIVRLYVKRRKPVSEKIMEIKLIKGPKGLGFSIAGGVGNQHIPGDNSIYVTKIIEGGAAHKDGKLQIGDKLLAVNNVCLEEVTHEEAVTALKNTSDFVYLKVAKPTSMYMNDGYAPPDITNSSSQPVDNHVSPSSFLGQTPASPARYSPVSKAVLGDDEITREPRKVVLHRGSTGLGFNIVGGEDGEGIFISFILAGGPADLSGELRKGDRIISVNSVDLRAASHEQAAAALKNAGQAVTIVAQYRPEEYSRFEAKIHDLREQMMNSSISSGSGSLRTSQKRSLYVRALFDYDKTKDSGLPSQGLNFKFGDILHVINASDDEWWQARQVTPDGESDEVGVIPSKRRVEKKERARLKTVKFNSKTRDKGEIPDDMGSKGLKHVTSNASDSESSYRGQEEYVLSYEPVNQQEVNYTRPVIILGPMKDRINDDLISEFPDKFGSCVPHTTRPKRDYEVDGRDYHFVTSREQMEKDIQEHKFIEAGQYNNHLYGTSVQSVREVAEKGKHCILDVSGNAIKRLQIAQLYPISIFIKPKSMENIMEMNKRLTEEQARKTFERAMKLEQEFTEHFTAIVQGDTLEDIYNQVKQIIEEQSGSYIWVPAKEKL

“Disks large homolog 1 (Homo sapiens) (from UniProt Q12959) Q340P”: the “effect of a mutation on the interaction” value was “disrupting interaction strength” in the assay with apc_human APC [1] and “decreasing interaction strength” in the assay with apc_human APC [2].
